According to PMC11697113, “The Hsc70 system maintains the synaptic SNARE protein SNAP-25 in an assembly-competent state and delays its aggregation [drawing 1]” (The Journal of Biological Chemistry, 2024):

Molecular target: heat shock cognate 70 (Hsc70), human constitutively expressed Hsp70, wild type (human) (UniProt P11142)
Sequence (P11142 whole entry): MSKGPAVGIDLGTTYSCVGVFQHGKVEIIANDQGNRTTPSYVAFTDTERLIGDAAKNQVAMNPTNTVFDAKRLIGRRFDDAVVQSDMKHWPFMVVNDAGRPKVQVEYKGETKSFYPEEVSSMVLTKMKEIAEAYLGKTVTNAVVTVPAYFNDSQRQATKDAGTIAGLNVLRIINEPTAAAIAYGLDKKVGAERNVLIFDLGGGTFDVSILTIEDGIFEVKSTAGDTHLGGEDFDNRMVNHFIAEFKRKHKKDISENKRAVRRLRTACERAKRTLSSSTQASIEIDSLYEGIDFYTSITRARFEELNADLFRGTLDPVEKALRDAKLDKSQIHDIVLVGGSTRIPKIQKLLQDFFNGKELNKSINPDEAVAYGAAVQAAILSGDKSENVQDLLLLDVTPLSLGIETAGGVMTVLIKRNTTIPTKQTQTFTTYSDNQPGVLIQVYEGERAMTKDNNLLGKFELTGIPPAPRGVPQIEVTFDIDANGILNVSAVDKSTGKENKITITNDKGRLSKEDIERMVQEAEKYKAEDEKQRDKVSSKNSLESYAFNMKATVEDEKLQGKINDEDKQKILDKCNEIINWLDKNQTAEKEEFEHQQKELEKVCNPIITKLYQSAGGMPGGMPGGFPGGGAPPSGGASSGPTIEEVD

lag time of SNAP-25 aggregation (50 μM SNAP-25, optical density at 360 nm, 37 °C) in the presence of Hsc70 (5 μM); ∼38 h without Hsc70: 65 h
Substance: SNAP-25 (SNAP-25B, Cys-less CS mutant), His tag cleaved (from UniProt P60880-1 1-206) (natural protein)
